B1: CPEB3 Ribozyme (parent)
chain: GGGGGCCACAGCAGAAGCGUUCACGUCGCGGCCCCUGUCAGAUUCUGGUGAAUCUGCGAAUUCUGCUGU

Variants of: B1
Assay: self-cleavage, relative activity (ratio to wild type); higher = more cleavage; co-transcriptional

| Variant | self-cleavage |
| --- | --- |
| GGGGGCCACAGCAGAAGCUUUCACGUCGCGGCCCCUGUCAGAUUCUUGUGAAUCUGCGAAUUCUGCUGU | 0.64 |
| GGGGGCCACAGCAGAAGCUUUCACGUCGCGGCCCCUGUCAGAUUCUGGUGAAUCUGCGAAUUCUGCUGC | 0.925 |
| GGGGGCCACAGCAGAAGCUUUCACGUCGCGGCCCCUGUCAGAUUCUGGUGAAUCUGCGAAUUCUGCUGA | 0.739 |
| GGGGGCCACAGCAGAAGCUUUCACGUCGCGGCCCCUGUCAGAUUCUGGUGAAUCCGCGAAUUCUGCUGU | 0.191 |
| GGGGGCCACAGCAGAAGCUUUCACGUCGCGGCCCCUGUCAGAUUGUGGUGAAUCUGCGAAUUCUGCUGU | 0.4 |
| GGGGGCCACAGCAGAAGCUUUCACGUCGCGGCCCCUGUCAGAUUUUGGUGAAUCUGCGAAUUCUGCUGU | 0.469 |
| GGGGGCCACAGCAGAAGCUUUCACGUCGCGGCCCCUUUCAGAUUCUGGUGAAUCUGCGAAUUCUGCUGU | 0.199 |
| GGGGGCCACAGCAGAAGCUUUCACGUCGCGGCCCCUCUCAGAUUCUGGUGAAUCUGCGAAUUCUGCUGU | 0.175 |
| GGGGGCCACAGCAGAAGCUUUCACGUCGCGGCCCCUAUCAGAUUCUGGUGAAUCUGCGAAUUCUGCUGU | 0.19 |
| GGGGGCCACAGCAGAAGCUUUCACGUCGCGGCCCCUGUCAGAUACUGGUGAAUCUGCGAAUUCUGCUGU | 0.354 |
| GGGGGCCACAGCAGAAGCUUUCACGUCGCGGCCCCUGUCAGAUGCUGGUGAAUCUGCGAAUUCUGCUGU | 0.398 |
| GGGGGCCACAGCAGAAGCUUUCACGUCUCGGCCCCUGUCAGAUUCUGGUGAAUCUGCGAAUUCUGCUGU | 0.116 |
| GGGGGCCACAGCAGAAGCUUUCACGUCACGGCCCCUGUCAGAUUCUGGUGAAUCUGCGAAUUCUGCUGU | 0.122 |
| GGGGGCCACAGCAGAAGCUUUCACGUCGCGGCCCCUGUCAGAUUCUGGUGAAUCUGCUAAUUCUGCUGU | 0.553 |
| GGGGGCCACAGCAGAAGCUUUCACGUCGCGGCCCCUGUCAGAUUCUGGUGAAUCUGCAAAUUCUGCUGU | 0.352 |
| GGGGGCCACAGCAGAAGCUUUCACGUCGCGGCCCCGGUCAGAUUCUGGUGAAUCUGCGAAUUCUGCUGU | 0.222 |
| GGGGGCCACAGCAGAAGCUUUCACAUCGCGGCCCCUGUCAGAUUCUGGUGAAUCUGCGAAUUCUGCUGU | 0.177 |
| GGGGGCCACAGCAGAAGCUUUCACUUCGCGGCCCCUGUCAGAUUCUGGUGAAUCUGCGAAUUCUGCUGU | 0.14 |
| GGGGGCCACAGCAGAAGCUUUCACCUCGCGGCCCCUGUCAGAUUCUGGUGAAUCUGCGAAUUCUGCUGU | 0.122 |
| GGGGGCCACAGCAGAAGCUUUCACGUCGCGGCCCCUGUCAGAUUCUGUUGAAUCUGCGAAUUCUGCUGU | 0.681 |

| Variant | self-cleavage |
| --- | --- |
| GGGGGCCACAGCAGAAGCGAUCACGUCGCGGCCCCUGUCGGAUUCUGGUGAAUCUGCGAAUUCUGCUGU | 0.11 |
| GGGGGCCACAGCAGAAGCUUUCACGUCGCGGCCCCUGUCAAAUUCUGGUGAAUCUGCGAAUUCUGCUGU | 0.181 |
| GGGGGCCACAGCAGAAGCUUUCACGUCGCGGCCCCUGUCACAUUCUGGUGAAUCUGCGAAUUCUGCUGU | 0.16 |
| GGGGGCCACAGCAGAAGCUUUCACGUCGCGGCCCCUGUCAUAUUCUGGUGAAUCUGCGAAUUCUGCUGU | 0.157 |
| GGGGGCCACAGCAGAAGCUUUCACGUCGCGGCCCCUGUCAGAUUCUGGUGAAUCUGCGAAUUCUCCUGU | 0.287 |
| GGGGGCCACAGCAGAAGCUUUCACGUCGCGGCCCCUGUCAGAUUCUGGUGAAUCUGCGAAUUCUUCUGU | 0.148 |
| GGGGGCCACAGCAGAAGCUUUCACGUCGCGGCCCCUGUCAGAUUCUGGUGAAUCUGCGAAUUCUACUGU | 0.254 |
| GGGGGCCACAGCAGAAGCUUUCACGUCGCGGCCCCUGUCAGAUUCUGGUCAAUCUGCGAAUUCUGCUGU | 0.458 |
| GGGGGCCACAGCAGAAGCUUUCACGUCGCGGCCCCUGUCAGAUUCUGGUAAAUCUGCGAAUUCUGCUGU | 0.543 |
| GGGGGCCACAGCAGAAGCGAUCACGUCGCGGCCCCUGUCAGAUUCUGGUGAAUCUGCGAAUUCUGCUGU | 0.157 |
| GGGGGCCACAGCAGAAGCUUUCACGUCGCGGCCCCUGUCAGAUUCUGGCGAAUCUGCGAAUUCUGCUGU | 0.594 |
| GGGGGCCACAGCAGAAGCUUUCACGUCGCGGCCCCUGUCAGAUUCUGGGGAAUCUGCGAAUUCUGCUGU | 0.459 |
| GGGGGCCACAGCAGAAGCUUUCACGUCGCAGCCCCUGUCAGAUUCUGGUGAAUCUGCGAAUUCUGCUGU | 0.143 |
| GGGGGCCACAGCAGAAGCUUUCACGUCGCUGCCCCUGUCAGAUUCUGGUGAAUCUGCGAAUUCUGCUGU | 0.166 |
| GGGGGCCACAGCAGAAGCUUUCACGUCGCGACCCCUGUCAGAUUCUGGUGAAUCUGCGAAUUCUGCUGU | 0.258 |
| GGGGGCCACAGCAGAAGCUUUCACGUCGCGUCCCCUGUCAGAUUCUGGUGAAUCUGCGAAUUCUGCUGU | 0.168 |
| GGGGGCCACAGCAGAAGCUUUCACGUCGCGCCCCCUGUCAGAUUCUGGUGAAUCUGCGAAUUCUGCUGU | 0.163 |
| GGGGGCCACAGCAGAAGCUUUCACGUCGCGGCCCCUGUCAGAAUCUGGUGAAUCUGCGAAUUCUGCUGU | 0.202 |
| GGGGGCCACAGCAGAAGCUUUCACGUCGCGGCCCCUGUCAGACUCUGGUGAAUCUGCGAAUUCUGCUGU | 0.333 |

From the RNAGym collection of RNA variant scans (doi:10.7554/elife.80360)
